Measured values: patent publication US20180298070A1, “PEPTIDE COMPOUND” (Takeda Pharmaceutical Company Limited, published 2018)
Non-standard residues stand in square brackets, D forms with d. No end group written: not given here. Aib = CC(C)(N)C(=O)O

B1: Compound 6 (peptide)
peptide: Y[Aib]EGTVVSLYSI[Aib]LDKQAQ[Aib]EFVKWLLKGGPSSGAPPPSK-NH2
modifications: N-terminus assumed
SMILES: CC[C@H](C)[C@H](NC(=O)[C@H](CO)NC(=O)[C@H](Cc1ccc(O)cc1)NC(=O)[C@H](CC(C)C)NC(=O)[C@H](CO)NC(=O)[C@@H](NC(=O)[C@@H](NC(=O)[C@@H](NC(=O)CNC(=O)[C@H](CCC(=O)O)NC(=O)C(C)(C)NC(=O)[C@@H](N)Cc1ccc(O)cc1)[C@@H](C)O)C(C)C)C(C)C)C(=O)NC(C)(C)C(=O)N[C@@H](CC(C)C)C(=O)N[C@@H](CC(=O)O)C(=O)N[C@@H](CCCCN)C(=O)N[C@@H](CCC(N)=O)C(=O)N[C@@H](C)C(=O)N[C@@H](CCC(N)=O)C(=O)NC(C)(C)C(=O)N[C@@H](CCC(=O)O)C(=O)N[C@@H](Cc1ccccc1)C(=O)N[C@H](C(=O)N[C@@H](CCCCN)C(=O)N[C@@H](Cc1c[nH]c2ccccc12)C(=O)N[C@@H](CC(C)C)C(=O)N[C@@H](CC(C)C)C(=O)N[C@@H](CCCCN)C(=O)NCC(=O)NCC(=O)N1CCC[C@H]1C(=O)N[C@@H](CO)C(=O)N[C@@H](CO)C(=O)NCC(=O)N[C@@H](C)C(=O)N1CCC[C@H]1C(=O)N1CCC[C@H]1C(=O)N1CCC[C@H]1C(=O)N[C@@H](CO)C(=O)N[C@@H](CCCCN)C(N)=O)C(C)C
B2: Compound 435 (peptide)
peptide: YXEGTXISDYSIXXDRXAQXNFVNWXLAQRPSSGAPPPS
modifications: N-terminal acetyl (Ac-Tyr); Aib at 2, 13, 17, 20; Iva at 6, 26; Lys(Eda-GGGGG-) at 14; C-terminal NH2
B3: Compound 492 (peptide)
peptide: YXEGTXISDYSIXLDRXHQXNFVNWXLAQRPSSGAPPPS
modifications: N-methyl on Tyr1 (Me-Tyr); Aib at 2, 13, 20; Iva at 6, 26; Lys(Oda-GGGGGG-) at 17; C-terminal NH2
B4: Compound 507 (peptide)
peptide: YXEGTXISDYSIXXDRXHQXNFVNWXLAQRPSSGAPPPS
modifications: N-methyl on Tyr1 (Me-Tyr); Aib at 2, 13, 17, 20; Iva at 6, 26; Lys(Heda-GGGGG-) at 14; C-terminal NH2
B5: Compound 496 (peptide)
peptide: YXEGTXISDYSIXLDRXAQXNFVNWXLAQRPSSGAPPPS
modifications: N-methyl on Tyr1 (Me-Tyr); Aib at 2, 13, 20; Iva at 6, 26; Lys(Oda-GGGGGG-) at 17; C-terminal NH2
B6: Compound 504 (peptide)
peptide: YXEGTXISDYSIXLDRXHQXNFVNWXLAQRPSSGAPPPS
modifications: N-methyl on Tyr1 (Me-Tyr); Aib at 2, 13, 20; Iva at 6, 26; Lys(Hepda-GGGGGG-) at 17; C-terminal NH2
B7: Compound 503 (peptide)
peptide: YXEGTXISDYSIXLDRXHQXNFVNWXLAQRPSSGAPPPS
modifications: N-methyl on Tyr1 (Me-Tyr); Aib at 2, 13, 20; Iva at 6, 26; Lys(Heda-GGGGGG-) at 17; C-terminal NH2
B8: Compound 465 (peptide)
peptide: YXEGTXISDYSIXXDRXAQXNFVNWXLAQRPSSGAPPPS
modifications: N-methyl on Tyr1 (Me-Tyr); Aib at 2, 13, 17, 20; Iva at 6, 26; Lys(Hepda-GGGGG-) at 14; C-terminal NH2
B9: Compound 457 (peptide)
peptide: YXEGTXISDYSIXXDRXAQXNFVNWXLAQRPSSGAPPPS
modifications: N-methyl on Tyr1 (Me-Tyr); Aib at 2, 13, 17, 20; Iva at 6, 26; Lys(Heda-GGGGGG-) at 14; C-terminal NH2
B10: Compound 491 (peptide)
peptide: YXEGTXISDYSIXLDRXHQXNFVNWXLAQRPSSGAPPPS
modifications: N-methyl on Tyr1 (Me-Tyr); Aib at 2, 13, 20; Iva at 6, 26; Lys(Oda-GGGGG-) at 17; C-terminal NH2
B11: Compound 439 (peptide)
peptide: YXEGTXISDYSIXXDRXAQXNFVNWXLAQRPSSGAPPPS
modifications: N-methyl on Tyr1 (Me-Tyr); Aib at 2, 13, 17, 20; Iva at 6, 26; Lys(Oda-GGGGGG-) at 14; C-terminal NH2
B12: Compound 510 (peptide)
peptide: YXEGTXISDYSIXXDRXHQXNFVNWXLAQRPSSGAPPPS
modifications: N-methyl on Tyr1 (Me-Tyr); Aib at 2, 13, 17, 20; Iva at 6, 26; Lys(Hepda-GGGGGG-) at 14; C-terminal NH2
B13: Compound 459 (peptide)
peptide: YXEGTXISDYSIXXDRXAQXNFVNWXLAQRPSSGAPPPS
modifications: N-methyl on Tyr1 (Me-Tyr); Aib at 2, 13, 17, 20; Iva at 6, 26; Lys(Hda-GGGGG-) at 14; C-terminal NH2
B14: Compound 484 (peptide)
peptide: YXEGTXISDYSIXXDRXHQXNFVNWXLAQRPSSGAPPPS
modifications: N-methyl on Tyr1 (Me-Tyr); Aib at 2, 13, 17, 20; Iva at 6, 26; Lys(Oda-GGGGGG-) at 14; C-terminal NH2
B15: Compound 494 (peptide)
peptide: YXEGTXISDYSIXLDRXAQXNFVNWXLAQRPSSGAPPPS
modifications: N-methyl on Tyr1 (Me-Tyr); Aib at 2, 13, 20; Iva at 6, 26; Lys(Heda-GGGGGG-) at 17; C-terminal NH2
B16: Compound 475 (peptide)
peptide: YXEGTXISDYSIXXDRXHQXNFVNWXLAQRPSSGAPPPS
modifications: N-methyl on Tyr1 (Me-Tyr); Aib at 2, 13, 17, 20; Iva at 6, 26; Lys(Eda-GGGGG-) at 14; C-terminal NH2
B17: Compound 509 (peptide)
peptide: YXEGTXISDYSIXXDRXHQXNFVNWXLAQRPSSGAPPPS
modifications: N-methyl on Tyr1 (Me-Tyr); Aib at 2, 13, 17, 20; Iva at 6, 26; Lys(Heda-GGGGGG-) at 14; C-terminal NH2
B18: Compound 502 (peptide)
peptide: YXEGTXISDYSIXLDRXHQXNFVNWXLAQRPSSGAPPPS
modifications: N-methyl on Tyr1 (Me-Tyr); Aib at 2, 13, 20; Iva at 6, 26; Lys(Hepda-GGGGG-) at 17; C-terminal NH2
B19: Compound 493 (peptide)
peptide: YXEGTXISDYSIXLDRXHQXNFVNWXLAQRPSSGAPPPS
modifications: N-methyl on Tyr1 (Me-Tyr); Aib at 2, 13, 20; Iva at 6, 26; Lys(Eda-GGGGG-) at 17; C-terminal NH2
B20: Compound 521 (peptide)
peptide: YXEGTXISDYSIXXDRXHQXNFVNWXLAQRPSSGAPPPS
modifications: N-methyl on Tyr1 (Me-Tyr); Aib at 2, 13, 17, 20; Iva at 6, 26; Lys(Eda-GGGGGG-) at 14; C-terminal NH2
B21: Compound 445 (peptide)
peptide: YXEGTXISDYSIXXDRXAQXNFVNWXLAQRPSSGAPPPS
modifications: N-methyl on Tyr1 (Me-Tyr); Aib at 2, 13, 17, 20; Iva at 6, 26; Lys(Heda-GGGGG-) at 14; C-terminal NH2
B22: Compound 466 (peptide)
peptide: YXEGTXISDYSIXXDRXAQXNFVNWXLAQRPSSGAPPPS
modifications: N-methyl on Tyr1 (Me-Tyr); Aib at 2, 13, 17, 20; Iva at 6, 26; Lys(Hepda-GGGGGG-) at 14; C-terminal NH2
B23: Compound 508 (peptide)
peptide: YXEGTXISDYSIXXDRXHQXNFVNWXLAQRPSSGAPPPS
modifications: N-methyl on Tyr1 (Me-Tyr); Aib at 2, 13, 17, 20; Iva at 6, 26; Lys(Hepda-GGGGG-) at 14; C-terminal NH2
B24: Compound 441 (peptide)
peptide: YXEGTXISDYSIXXDRXAQXNFVNWXLAQRPSSGAPPPS
modifications: not fully specified; N-methyl on Tyr1 (MeTyr); Aib at 2, 13, 17, 20; Iva at 6, 26; Lys(Oda-GGGGG-) at 14; C-terminal OH
B25: Compound 495 (peptide)
peptide: YXEGTXISDYSIXLDRXAQXNFVNWXLAQRPSSGAPPPS
modifications: N-methyl on Tyr1 (Me-Tyr); Aib at 2, 13, 20; Iva at 6, 26; Lys(Hepda-GGGGGG-) at 17; C-terminal NH2
B26: Compound 415 (peptide)
peptide: YXEGTXISDYSIXXDRXAQXNFVNWXLAQR
modifications: N-methyl on Tyr1 (MeTyr); Aib at 2, 13, 17, 20; Iva at 6, 26; Lys(Oda-GGGGG-) at 14; C-terminal NH2
B27: Compound 473 (peptide)
peptide: YXEGTXISDYSIXXDRXAQXNFVNWXLAQRPSSGAPPPSR
modifications: N-methyl on Tyr1 (Me-Tyr); Aib at 2, 13, 17, 20; Iva at 6, 26; Lys(Eda-GGGGG-) at 14; C-terminal NH2
B28: Compound 522 (peptide)
peptide: YXEGTFISDYSIAXDRXHQXNFVNWXLAQRPSSGAPPPSR
modifications: not fully specified; N-methyl on Tyr1 (Me-Tyr); Aib at 2, 13, 17, 20; Iva at 6, 26; Lys(Eda-GGGGGG-) at 14; C-terminal NH2
B29: Compound 506 (peptide)
peptide: YXEGTXISDYSIXXDRXAQXNFVNWXLAQRPSSGAPPPSR
modifications: N-methyl on Tyr1 (Me-Tyr); Aib at 2, 13, 17, 20; Iva at 6, 26; Lys(Hepda-GGGGGG-) at 14; C-terminal NH2
B30: Compound 479 (peptide)
peptide: YXEGTXISDYSIXXDRXAQXNFVNWXLAQRPSSGAPPPSR
modifications: N-methyl on Tyr1 (Me-Tyr); Aib at 2, 13, 17, 20; Iva at 6, 26; Lys(Oda-GGGGGG-) at 14; C-terminal NH2
B31: Compound 520 (peptide)
peptide: YXEGTXISDYSIXXDRXAQXNFVNWXLAQRPSSGAPPPSR
modifications: N-methyl on Tyr1 (Me-Tyr); Aib at 2, 13, 17, 20; Iva at 6, 26; Lys(Eda-GGGGGG-) at 14; C-terminal NH2

Molecular target: human GLP-1R (human, UniProt P43220)
Test: cell-based or functional assay

Q: With B1 as the binder, how does the “Agonist activity (EC50, M)” value read?
A: Its value is over 1e-06 M.

Molecular target: human GLP-1R (human, UniProt P43220)
Test: cell-based or functional assay
Remark: another data set of the same source

Q: With B2 as the binder, how does the “Agonist activity (EC50, M)” value read?
A: The value was over 1e-06 M.

Q: Which “Agonist activity (EC50, M)” value does the source give for B3 here?
A: The value was over 1e-06 M.

Q: Which “Agonist activity (EC50, M)” value does the source give for B4 here?
A: The value was over 1e-06 M.

Q: For B5, which “Agonist activity (EC50, M)” value is on record?
A: Its value is over 1e-06 M.

Q: B6 was tested. Which “Agonist activity (EC50, M)” value did it give?
A: The value was over 1e-06 M.

Q: Which “Agonist activity (EC50, M)” value does the source give for B7 here?
A: The value was over 1e-06 M.

Q: With B8 as the binder, how does the “Agonist activity (EC50, M)” value read?
A: Its value is over 1e-06 M.

Q: B9 was tested. Which “Agonist activity (EC50, M)” value did it give?
A: The value was over 1e-06 M.

Q: Which “Agonist activity (EC50, M)” value does the source give for B10 here?
A: Its value is over 1e-06 M.

Q: B11 was tested. Which “Agonist activity (EC50, M)” value did it give?
A: Its value is over 1e-06 M.

Q: Which “Agonist activity (EC50, M)” value does the source give for B12 here?
A: Its value is over 1e-06 M.

Q: Which “Agonist activity (EC50, M)” value does the source give for B13 here?
A: Its value is over 1e-06 M.

Q: Which “Agonist activity (EC50, M)” value does the source give for B14 here?
A: The value was over 1e-06 M.

Q: With B15 as the binder, how does the “Agonist activity (EC50, M)” value read?
A: Its value is over 1e-06 M.

Q: How did the “Agonist activity (EC50, M)” value turn out when B16 was run?
A: The value was over 1e-06 M.

Q: Which “Agonist activity (EC50, M)” value does the source give for B17 here?
A: Its value is over 1e-06 M.

Q: With B18 as the binder, how does the “Agonist activity (EC50, M)” value read?
A: The value was over 1e-06 M.

Q: With B19 as the binder, how does the “Agonist activity (EC50, M)” value read?
A: The value was over 1e-06 M.

Q: How did the “Agonist activity (EC50, M)” value turn out when B20 was run?
A: Its value is over 1e-06 M.

Q: Which “Agonist activity (EC50, M)” value does the source give for B21 here?
A: The value was over 1e-06 M.

Q: How did the “Agonist activity (EC50, M)” value turn out when B22 was run?
A: Its value is over 1e-06 M.

Q: How did the “Agonist activity (EC50, M)” value turn out when B23 was run?
A: The value was over 1e-06 M.

Q: For B24, which “Agonist activity (EC50, M)” value is on record?
A: Its value is over 1e-06 M.

Q: With B25 as the binder, how does the “Agonist activity (EC50, M)” value read?
A: The value was over 1e-06 M.

Q: How did the “Agonist activity (EC50, M)” value turn out when B26 was run?
A: Its value is over 1e-06 M.

Q: With B27 as the binder, how does the “Agonist activity (EC50, M)” value read?
A: Its value is over 1e-06 M.

Q: B28 was tested. Which “Agonist activity (EC50, M)” value did it give?
A: Its value is over 1e-06 M.

Q: Which “Agonist activity (EC50, M)” value does the source give for B29 here?
A: The value was over 1e-06 M.

Q: B30 was tested. Which “Agonist activity (EC50, M)” value did it give?
A: The value was over 1e-06 M.

Q: With B31 as the binder, how does the “Agonist activity (EC50, M)” value read?
A: The value was over 1e-06 M.
